Experimental findings from patent US20030143158A1 (DYAX, published 2003) are described below.

One may read the Kd as a measure of binding affinity in units of concentration. Higher therefore signals weaker binding.

Assay [1] has as its target T1, fibrin (UniProt P02671 36-629; P02675 45-491; P02679 27-437, limits assumed).
T1 construct: Polymerised fibrin formed on 96-well plates from fibrinogen and thrombin; also called dried fibrin; fibrin target
T1 sequence (looked up) 1: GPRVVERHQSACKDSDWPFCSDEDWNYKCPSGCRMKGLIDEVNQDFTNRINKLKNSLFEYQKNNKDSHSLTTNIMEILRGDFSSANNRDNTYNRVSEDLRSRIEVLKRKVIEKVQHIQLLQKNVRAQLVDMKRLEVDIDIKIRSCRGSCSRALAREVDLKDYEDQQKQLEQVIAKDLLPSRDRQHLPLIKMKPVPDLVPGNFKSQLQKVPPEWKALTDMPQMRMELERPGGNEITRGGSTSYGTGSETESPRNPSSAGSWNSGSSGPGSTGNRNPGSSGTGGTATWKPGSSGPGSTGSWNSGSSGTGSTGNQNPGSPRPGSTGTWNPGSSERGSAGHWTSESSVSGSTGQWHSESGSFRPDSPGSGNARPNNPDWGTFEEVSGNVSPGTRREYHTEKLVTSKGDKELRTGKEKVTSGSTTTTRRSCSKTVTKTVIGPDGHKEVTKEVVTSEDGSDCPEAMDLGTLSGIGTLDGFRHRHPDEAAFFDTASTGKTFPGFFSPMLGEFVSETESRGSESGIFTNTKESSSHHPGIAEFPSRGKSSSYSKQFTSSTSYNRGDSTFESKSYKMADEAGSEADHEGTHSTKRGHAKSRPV
T1 sequence (looked up) 2: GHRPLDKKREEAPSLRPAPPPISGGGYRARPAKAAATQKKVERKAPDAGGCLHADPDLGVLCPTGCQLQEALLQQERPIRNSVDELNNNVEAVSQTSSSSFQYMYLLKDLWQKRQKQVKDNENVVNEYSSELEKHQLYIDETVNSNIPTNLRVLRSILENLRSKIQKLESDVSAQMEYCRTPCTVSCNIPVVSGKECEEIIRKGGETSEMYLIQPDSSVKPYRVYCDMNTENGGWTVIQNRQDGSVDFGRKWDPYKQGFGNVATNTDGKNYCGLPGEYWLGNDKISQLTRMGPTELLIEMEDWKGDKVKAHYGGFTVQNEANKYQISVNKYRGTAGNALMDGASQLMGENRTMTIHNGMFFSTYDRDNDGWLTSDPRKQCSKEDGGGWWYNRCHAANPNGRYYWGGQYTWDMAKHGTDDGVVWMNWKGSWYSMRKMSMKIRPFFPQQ
T1 sequence (looked up) 3: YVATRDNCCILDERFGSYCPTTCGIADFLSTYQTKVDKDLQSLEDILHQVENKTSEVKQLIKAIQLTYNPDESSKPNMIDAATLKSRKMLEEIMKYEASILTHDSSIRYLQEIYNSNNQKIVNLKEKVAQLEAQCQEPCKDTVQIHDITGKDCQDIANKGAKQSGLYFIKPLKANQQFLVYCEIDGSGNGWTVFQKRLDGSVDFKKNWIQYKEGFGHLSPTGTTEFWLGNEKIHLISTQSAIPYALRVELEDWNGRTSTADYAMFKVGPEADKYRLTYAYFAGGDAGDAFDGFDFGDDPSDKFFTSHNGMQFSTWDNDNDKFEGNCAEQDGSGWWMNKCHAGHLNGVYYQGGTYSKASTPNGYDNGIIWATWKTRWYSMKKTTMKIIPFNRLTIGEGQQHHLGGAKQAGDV
The experiment in a line: equilibrium binding to dried fibrin plates, free peptide measured by mass spectrometry.
Experimental: A fibrinogen solution was prepared at 10 mg/ml (or at twice the concentration of fibrin desired) in TBS buffer (50 mM Tris, 150 mM NaCl, pH 7.4). The fibrinogen solution typically contained ˜17 mM citrate. Subsequently, a solution was prepared containing 2 U/ml thrombin, 20 mM CaCl₂, and 5 mM ε-aminocaproic acid in TBS. The fibrinogen solution and thrombin solution were mixed 1:1 in the wells of a 96-well plate, aliquoting 50 μL of each solution in each well (total volume=100 μL). The plates were evaporated to dryness overnight at 37° C. The polypeptide to be tested, dissolved in water, was added to each well at concentrations between 1-200 μM. […] The plate containing the peptide and (rehydrated) dried fibrin was covered and incubated at 37° C. on a shaker table for 2 hours.
The supernatant in each well was removed by pipette and the concentration of the polypeptide was measured by mass spectrometry. The ion current detected at the mass of the peptide was monitored after injection of a sample into the mass spectrometer. The area-under-the-peak was quantified and compared to standards of known concentration. The concentration of peptide in the supernatant is equal to the concentration of free peptide. The concentration of bound peptide was determined by subtracting the concentration of free peptide from the total (starting) concentration. […]

The target in assay [2] is T2, fibrinogen (UniProt P02671 20-629; P02675 31-491; P02679 27-437, limits assumed).
T2 construct: Biotinylated and immobilised through streptavidin for ELISA
T2 sequence (looked up) 1: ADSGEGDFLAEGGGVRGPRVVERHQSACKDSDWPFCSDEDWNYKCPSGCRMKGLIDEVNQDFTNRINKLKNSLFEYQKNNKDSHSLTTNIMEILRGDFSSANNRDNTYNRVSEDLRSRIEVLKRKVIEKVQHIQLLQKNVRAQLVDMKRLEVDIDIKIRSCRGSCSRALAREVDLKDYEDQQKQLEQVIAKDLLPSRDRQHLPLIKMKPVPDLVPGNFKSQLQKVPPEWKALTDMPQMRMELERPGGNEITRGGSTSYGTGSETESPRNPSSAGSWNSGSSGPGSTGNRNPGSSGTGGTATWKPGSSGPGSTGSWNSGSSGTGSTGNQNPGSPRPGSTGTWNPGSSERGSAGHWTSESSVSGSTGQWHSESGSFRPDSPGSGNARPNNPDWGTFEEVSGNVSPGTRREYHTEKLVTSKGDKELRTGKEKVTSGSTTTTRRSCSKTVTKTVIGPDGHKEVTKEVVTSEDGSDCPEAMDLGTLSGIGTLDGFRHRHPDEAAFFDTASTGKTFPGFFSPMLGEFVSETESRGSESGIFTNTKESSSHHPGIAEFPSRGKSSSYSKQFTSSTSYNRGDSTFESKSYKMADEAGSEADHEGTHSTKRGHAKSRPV
T2 sequence (looked up) 2: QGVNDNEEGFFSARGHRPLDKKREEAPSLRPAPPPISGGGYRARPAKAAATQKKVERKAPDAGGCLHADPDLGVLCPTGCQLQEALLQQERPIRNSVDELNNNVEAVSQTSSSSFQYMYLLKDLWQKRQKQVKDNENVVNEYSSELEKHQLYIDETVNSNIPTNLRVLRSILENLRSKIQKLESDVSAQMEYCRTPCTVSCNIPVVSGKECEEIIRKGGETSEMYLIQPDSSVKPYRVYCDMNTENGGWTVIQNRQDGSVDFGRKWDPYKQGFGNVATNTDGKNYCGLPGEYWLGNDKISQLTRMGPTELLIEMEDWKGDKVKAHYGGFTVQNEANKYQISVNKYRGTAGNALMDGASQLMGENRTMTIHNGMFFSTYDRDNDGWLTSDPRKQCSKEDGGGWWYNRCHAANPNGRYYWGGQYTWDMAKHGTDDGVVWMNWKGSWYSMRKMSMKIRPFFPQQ
T2 sequence (looked up) 3: T1 sequence (looked up) 3
The experiment in a line: phage ELISA on immobilised fibrinogen. As for the experimental part: After five rounds of selection, the eluted phage were propagated and a portion plated to isolate phage plaques arising from individual clones. Ninety such clones were selected randomly, propagated, and tested individually for binding to fibrin in a dried fibrin plate assay. Dried fibrin plates were prepared as described above for the library screening. Phage samples (˜10⁹ phage each) were incubated in the dried fibrin plate wells in binding buffer (50 mM Tris, 150 mM NaCl, 2 mM CaCl₂, 0.05% Tween-20) containing 0.1% HSA. After 1 hour, the plates were washed 5 times with binding buffer. Anti-M13 antibody conjugated to horseradish peroxidase (Pharmacia) was added at 1/5000 dilution in binding buffer to the wells and incubated with the fibrin for 1 hour. The wells were again washed 5 times with binding buffer and the presence of the antibody/phage/fibrin complex was measured with HRP calorimetric reagents (3,3′,5,5′-tetramethylbenzidine (TMB) and […]). A high absorbance at 595 nm (due to oxidized TMB) was indicative of a tight phage/fibrin interaction, and phage clones corresponding to those wells were identified as bearing fibrin-binding moieties.
These fibrin-binding positive clones were subjected to several secondary ELISA assays. These assays followed a similar protocol to that detailed above for the dried fibrin ELISA assay, the only variations being the method of target immobilization and the omission of HSA from binding and wash buffers. A screen against DD(E) acted as a further confirmation of fibrin binding activity. […] Finally, ELISAs to assay binding to immobilized HSA (passively bound to the polystyrene plate) and a target-free microtiter plate were controls to eliminate phage that bound promiscuously or nonspecifically.
The ELISAs were performed as described above.
(In general: ELISA stands for enzyme-linked immunosorbent assay.)

Assay [3] has as its target DD(E), soluble fibrin-derived polypeptide (complex of DD dimer with the central E domain of fibrin) (human) (UniProt P02671). As to the kind of experiment: fluorescence anisotropy (polarization): fluorescein-labeled peptide titrated with DD(E) protein. On the technique in general: In fluorescence polarisation assays a small probe gives low polarisation when free and higher when bound to something large.

Assay [4] shares this target. As to the kind of experiment: fluorescence polarization (anisotropy), fluorescein-labeled peptide with DD(E).

Ends that are not written are not given here. fluorescein = fluorescein label on the lysine side chain

B1: synthetic peptide DX-101 (peptide)
peptide: AEGTGSQWECPYGLCWIQAPGK
modifications: not fully specified (bridges); printed as Ala-Glu-Gly-Thr-Gly-Ser-Gln-Trp-Glu-Cys-Pro-Tyr-Gly-Leu-Cys-Trp-Ile-Gln-Ala-Pro-Gly-Lys; cysteine pairing not given here
B1 returned a dissociation constant (Kd) in assay [1] of 700 nM. In other words, the sub-micromolar range.
WMMCPMSEWLYCWSA [phage isolate 002-36-A02]: the binding result in assay [2] is recorded as “no binding”.

B2: phage isolate 002-35-E01 (peptide)
peptide: WELCSDENWLWCWPH
modifications: not fully specified (bridges); cysteine pairing not given here; also: displayed on M13 phage
notes: The two Cys are believed to form a disulfide
Regarding B2, in assay [2], the binding result is given as “no binding”.
As for WKACPGEDWLFCWGS [phage isolate 002-37-H02], the binding result in assay [2] is on record as “no binding”.
As for WQPCPWESWTFCWDP [phage isolate 002-37-C11], in assay [2], the binding result is reported as “no binding”.

B3: synthetic fibrin-binding peptide DX-303 (peptide)
peptide: Ac-WQPCPWESWTFCWDPGGGK(fluorescein)-NH2
modifications: not fully specified; printed as Ac-WQPCPWESWTFCWDPGGGK(fluorescein)-NH2; cysteine pairing not given here
With B3, the Kd in assay [3] and in assay [4] was 500 nM in each case.
Take RAPCDYYGTCVEL [phage isolate 002-36-H04]: the binding result in assay [2] is listed as “no binding”.

B4: synthetic fibrin-binding peptide DX-304 (peptide)
peptide: Ac-WAPCQEEPWLFCFHGGGGK(fluorescein)-NH2
modifications: not fully specified; printed as Ac-WAPCQEEPWLFCFHGGGGK(fluorescein)-NH2; cysteine pairing not given here
Consider B4, for which the Kd in assay [3] was determined as 350 nM; in assay [4], 400 nM.
For WAPCQEEPWLFCFHG [phage isolate 002-37-D02], the binding result in assay [2] was “no binding”.
